Each block holds one binder with its values, some of them ahead of it.
Tests used:
[1] = biological target: T1, bio-huCD38 (human (hu), UniProt P28907 43-300, biotinylated (bio-), site not stated); assay: SPR, antigen immobilized, antibody as analyte 25-1.6 nM; estimated from ka and the limit kd, indicative
Protocol: (§1) SPR analysis was performed on a Biocore 8K+, using a CFJB0944 CM5 sensor chip for immobilization and a SPR running buffer 1×HBS-EP+pH 7.4 (Cytiva, cat no. BR100669) according to the manufacturer's instructions.
(§2) In the second part of this example, antigen was immobilized on the chip and antibody dissolved in the SPR running buffer flowed over the chip.

[2] = biological target: T2, CD38 on Daudi cells (UniProt P28907 1-300, limits assumed); assay: titration binding FACS on Daudi cells
T2 construct: whole, on cells
Protocol: (§3) Subsequently the EC50 of antibodies samples was determined by titration binding FACS on Daudi cells (for CD38 binding evaluation), on THP-1 cells (for CD33 binding evaluation), on A-431 cells (for EGFR binding evaluation), on MKN-45 cells (for CEACAMS binding evaluation) and on HEK293T (for CD276 binding evaluation). Jurkat E6-1 or HEK293T cell lines were used as negative control, as applicable.

[3] = biological target: T1, bio-huCD38; assay: SPR, antigen immobilized, antibody as analyte 25-1.6 nM; at the instrument's limit
[4] = biological target: T1, bio-huCD38; assay: SPR, antibody captured on chip, antigen as analyte 200-6.25 nM
Protocol: as §1
(§4) In the first part of this example the antibody was immobilized on the chip and the antigen dissolved in the SPR running buffer flowed over the chip.

[5] = biological target: T1, bio-huCD38; assay: SPR, antigen immobilized, antibody as analyte 25-1.6 nM
Protocol: as §1, §2

[6] = biological target: T1, bio-huCD38; assay: SPR, antigen immobilized, antibody as analyte 25-1.6 nM; estimated from ka and the limit kd
Protocol: as §1, §2

[7] = biological target: bio-huEGFR (human (hu), UniProt P00533 25-645, biotinylated (bio-), site not stated); assay: SPR, antigen immobilized, antibody as analyte 25-1.6 nM
Protocol: as §1, §2

[8] = biological target: T3, EGFR on A-431 cells (UniProt P00533 25-1210, limits assumed); assay: titration binding FACS on A-431 cells
T3 construct: whole, on cells
Protocol: as §3

[9] = biological target: T4, bio-huCD276 (human (hu), UniProt Q5ZPR3 29-461, limits assumed, biotinylated (bio-), site not stated); assay: SPR, antibody captured on chip, antigen as analyte 400-12.5 nM
T4 construct: also called B7-H3
T4 sequence (looked up): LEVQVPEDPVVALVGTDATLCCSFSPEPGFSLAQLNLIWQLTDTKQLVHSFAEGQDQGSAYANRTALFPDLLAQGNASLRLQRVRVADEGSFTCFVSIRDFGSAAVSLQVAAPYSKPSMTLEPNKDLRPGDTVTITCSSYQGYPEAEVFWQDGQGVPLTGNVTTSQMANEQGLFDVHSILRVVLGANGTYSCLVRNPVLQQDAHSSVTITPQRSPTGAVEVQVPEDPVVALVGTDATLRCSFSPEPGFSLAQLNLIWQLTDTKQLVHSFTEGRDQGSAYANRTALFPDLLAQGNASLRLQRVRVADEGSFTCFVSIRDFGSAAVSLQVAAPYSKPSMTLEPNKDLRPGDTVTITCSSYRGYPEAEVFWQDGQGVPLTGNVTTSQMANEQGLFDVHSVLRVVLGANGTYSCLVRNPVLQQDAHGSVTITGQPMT
Protocol: as §1, §4

[10] = biological target: T5, CD276 on HEK293T cells (UniProt Q5ZPR3 29-534, limits assumed); assay: titration binding FACS on HEK293T cells
T5 construct: whole, on cells
T5 sequence (looked up): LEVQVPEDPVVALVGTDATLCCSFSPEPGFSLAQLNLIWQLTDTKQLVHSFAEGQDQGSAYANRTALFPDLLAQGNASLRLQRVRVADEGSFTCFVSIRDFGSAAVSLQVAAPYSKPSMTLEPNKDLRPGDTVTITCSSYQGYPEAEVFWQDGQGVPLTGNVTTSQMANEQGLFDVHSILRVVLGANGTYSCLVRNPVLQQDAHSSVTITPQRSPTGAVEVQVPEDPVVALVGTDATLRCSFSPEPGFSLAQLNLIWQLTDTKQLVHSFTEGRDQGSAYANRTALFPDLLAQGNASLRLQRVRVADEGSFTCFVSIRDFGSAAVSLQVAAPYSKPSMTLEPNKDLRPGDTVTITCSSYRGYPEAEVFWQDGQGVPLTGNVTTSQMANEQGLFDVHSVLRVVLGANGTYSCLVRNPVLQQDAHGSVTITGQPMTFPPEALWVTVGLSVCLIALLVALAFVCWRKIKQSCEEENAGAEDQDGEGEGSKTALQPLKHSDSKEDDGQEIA
Protocol: as §3

[11] = biological target: T4, bio-huCD276; assay: SPR, antigen immobilized, antibody as analyte 25-1.6 nM
Protocol: as §1, §2

B2: CD38 (bivalent)-DOTA(Fab)-p53 (bispecific antibody)
light: DVQLQESGGGLVQAGGSLRLSCTGSGRTFRNYPMAWFRQAPGKEREFVAGITWVGASTLYADFAKGRFTISRDNAKNTVYLQMNSLKPEDTAVYSCAAGRGIVAGRIPAEYADWGQGTQVTVSSGGGGSGGGGSGGGGSGGGGGSQAVVIQESALTTPPGETVTLTCGSSTGAVTASNYANWVQEKPDHLFTGLIGGHNNRPPGVPARFSGSLIGDKAALTIAGTQTEDEAIYFCALWYSDHWVIGGGTRLTVLGQPKANPTVTLFPPSSEELQANKATLVCLISDFYPGAVTVAWKADGSPVKAGVETTKPSKQSNNKYAASSYLSLTPEQWKSHRSYSCQVTHEGSTVEKTVAPTECS
heavy: DVQLQESGGGLVQAGGSLRLSCTGSGRTFRNYPMAWFRQAPGKEREFVAGITWVGASTLYADFAKGRFTISRDNAKNTVYLQMNSLKPEDTAVYSCAAGRGIVAGRIPAEYADWGQGTQVTVSSGGGGSGGGGSGGGGSGGGGGSHVKLQESGPGLVQPSQSLSLTCTVSGFSLTDYGVHWVRQSPGKGLEWLGVIWSGGGTAYNTALISRLNIYRDNSKNQVFLEMNSLQAEDTAMYYCARRGSYPYNYFDAWGRGTTVTVSSASTKGPSVFPLAPSSKSTSGGTAALGCLVKDYFPEPVTVSWNSGALTSGVHTFPAVLQSSGLYSLSSVVTVPSSSLGTQTYICNVNHKPSNTKVDKKVEPKSCGGGGSGGGGSKPLDGEYFTLQIRGRERFEMFRELNEALELKDAQAGKEPGGS
notes: Two identical CD38 VHHs, one on each Fab chain; has the p53 tetramerization domain; also called YM00004; molecule 3
- Kd [1]: < 0.000826 nM
- EC50 [2]: 3.45 nM
- koff [3]: < 1e-07 s⁻¹
- Kd [4]: 2.77 nM
- koff [4]: 0.00012 s⁻¹
- kon [4]: 43200 M⁻¹ s⁻¹
- kon [5]: 121000 M⁻¹ s⁻¹

B3: CD38 (Bivalent)-DOTA(Fab)-dp53 (bispecific antibody)
light: B2 light
heavy: DVQLQESGGGLVQAGGSLRLSCTGSGRTFRNYPMAWFRQAPGKEREFVAGITWVGASTLYADFAKGRFTISRDNAKNTVYLQMNSLKPEDTAVYSCAAGRGIVAGRIPAEYADWGQGTQVTVSSGGGGSGGGGSGGGGSGGGGGSHVKLQESGPGLVQPSQSLSLTCTVSGFSLTDYGVHWVRQSPGKGLEWLGVIWSGGGTAYNTALISRLNIYRDNSKNQVFLEMNSLQAEDTAMYYCARRGSYPYNYFDAWGRGTTVTVSSASTKGPSVFPLAPSSKSTSGGTAALGCLVKDYFPEPVTVSWNSGALTSGVHTFPAVLQSSGLYSLSSVVTVPSSSLGTQTYICNVNHKPSNTKVDKKVEPKSCG
notes: No tetramerization domain; also called YM00005; molecule 4
- EC50 [2]: 0.32 nM
- koff [3]: < 1e-07 s⁻¹
- Kd [4]: 25.1 nM
- koff [4]: 0.00112 s⁻¹
- kon [4]: 44700 M⁻¹ s⁻¹
- kon [5]: 324000 M⁻¹ s⁻¹
- Kd [6]: < 0.000309 nM

Second part, the binder after the results:

- Kd [1]: < 0.000535 nM
- EC50 [2]: 3.24 nM
- koff [3]: < 1e-07 s⁻¹
- Kd [4]: 1.89 nM
- koff [4]: 6.41e-05 s⁻¹
- kon [4]: 33800 M⁻¹ s⁻¹
- kon [5]: 187000 M⁻¹ s⁻¹
B1: CD38(Bivalent)-DOTA(fab)-p53_C-Term (bispecific antibody)
light: QAVVIQESALTTPPGETVTLTCGSSTGAVTASNYANWVQEKPDHLFTGLIGGHNNRPPGVPARFSGSLIGDKAALTIAGTQTEDEAIYFCALWYSDHWVIGGGTRLTVLGQPKANPTVTLFPPSSEELQANKATLVCLISDFYPGAVTVAWKADGSPVKAGVETTKPSKQSNNKYAASSYLSLTPEQWKSHRSYSCQVTHEGSTVEKTVAPTECSGGGGSGGGGSGGGGSGGGGGSDVQLQESGGGLVQAGGSLRLSCTGSGRTFRNYPMAWFRQAPGKEREFVAGITWVGASTLYADFAKGRFTISRDNAKNTVYLQMNSLKPEDTAVYSCAAGRGIVAGRIPAEYADWGQGTQVTVSS
heavy: HVKLQESGPGLVQPSQSLSLTCTVSGFSLTDYGVHWVRQSPGKGLEWLGVIWSGGGTAYNTALISRLNIYRDNSKNQVFLEMNSLQAEDTAMYYCARRGSYPYNYFDAWGRGTTVTVSSASTKGPSVFPLAPSSKSTSGGTAALGCLVKDYFPEPVTVSWNSGALTSGVHTFPAVLQSSGLYSLSSVVTVPSSSLGTQTYICNVNHKPSNTKVDKKVEPKSCGGGGSGGGGSGGGGSGGGGGSDVQLQESGGGLVQAGGSLRLSCTGSGRTFRNYPMAWFRQAPGKEREFVAGITWVGASTLYADFAKGRFTISRDNAKNTVYLQMNSLKPEDTAVYSCAAGRGIVAGRIPAEYADWGQGTQVTVSSGGGGSGGGGSKPLDGEYFTLQIRGRERFEMFRELNEALELKDAQAGKEPGGS
notes: Two identical C-terminal CD38 VHHs; has the p53 tetramerization domain; also called YM00015; molecule 14

- Kd [7]: 2.12 nM
- koff [7]: 0.000985 s⁻¹
- kon [7]: 464000 M⁻¹ s⁻¹
- EC50 [8]: 51.5 nM
B4: EGFR-DOTA(fab)-p53 (bispecific antibody)
light: EVQLVESGGGLVQPGGSLRLSCVASGFTFADYAMSWVRQAPGKGLQWVSSISYNGDTTYYAESMKDRFTISRDNAKNTLYLQMNSLKSEDTAVYYCASSGSYYPGHFESWGQGTQVTVSSGGGGSGGGGSGGGGSGGGGGSQAVVIQESALTTPPGETVTLTCGSSTGAVTASNYANWVQEKPDHLFTGLIGGHNNRPPGVPARFSGSLIGDKAALTIAGTQTEDEAIYFCALWYSDHWVIGGGTRLTVLGQPKANPTVTLFPPSSEELQANKATLVCLISDFYPGAVTVAWKADGSPVKAGVETTKPSKQSNNKYAASSYLSLTPEQWKSHRSYSCQVTHEGSTVEKTVAPTECS
heavy: HVKLQESGPGLVQPSQSLSLTCTVSGFSLTDYGVHWVRQSPGKGLEWLGVIWSGGGTAYNTALISRLNIYRDNSKNQVFLEMNSLQAEDTAMYYCARRGSYPYNYFDAWGRGTTVTVSSASTKGPSVFPLAPSSKSTSGGTAALGCLVKDYFPEPVTVSWNSGALTSGVHTFPAVLQSSGLYSLSSVVTVPSSSLGTQTYICNVNHKPSNTKVDKKVEPKSCGGGGSGGGGSKPLDGEYFTLQIRGRERFEMFRELNEALELKDAQAGKEPGGS
notes: The assays name bio-huEGFR and A-431 cells; also called YM00010; molecule 9

- Kd [9]: 40.1 nM
- koff [9]: 0.00456 s⁻¹
- kon [9]: 114000 M⁻¹ s⁻¹
- EC50 [10]: 2.14 nM
- Kd [11]: 2.5 nM
- koff [11]: 2.26e-05 s⁻¹
- kon [11]: 9050 M⁻¹ s⁻¹
B5: CD276-DOTA(fab)-p53 (bispecific antibody)
light: DVQLVESGGGLVQPGGSLRLSCAASGFTFSRYWMGWFRQAPGKGVEWVSTINSGGGSTYYADSVKGRFTISRDNAKNTLYLQLNNLKTEDTAMYYCAKEQWRTGSRGQGTQVTVSSSGGGGSGGGGSGGGGSGGGGSQAVVIQESALTTPPGETVTLTCGSSTGAVTASNYANWVQEKPDHLFTGLIGGHNNRPPGVPARFSGSLIGDKAALTIAGTQTEDEAIYFCALWYSDHWVIGGGTRLTVLGQPKANPTVTLFPPSSEELQANKATLVCLISDFYPGAVTVAWKADGSPVKAGVETTKPSKQSNNKYAASSYLSLTPEQWKSHRSYSCQVTHEGSTVEKTVAPTECS
heavy: B4 heavy
notes: Tetramerizes through p53 depending on concentration; also called YM00012; molecule 11

— US20260166185A1 (Y MABS THERAPEUTICS, published 2026)
